Assay [1] concerns model tumor growth and angiogenesis. Particulars: in vivo; cited from earlier work.
Assay [2] addresses T1, αVβ3 (Homo sapiens, UniProt P05106+P06756).
T1 construct: expressed in transfected cells
The experiment in a line: Binding of knottin-Fc fusion proteins to K562-αVβ3 cells (FACS). Particulars: Fc fusion in culture supernatant; Ca2+ and Mg2+ 1 mM each. From the text: The wild type and modified versions were transiently expressed in HEK293 cells grown in 3% FBS. Culture supernatant contained equivalent amounts of the respective fusion proteins (verified by ELISA) and of the correct size (using western blotting with anti-his tag antibody). Binding of each to K562 cells expressing recombinant αVβ3 (K562-αVβ3) was examined using FACS as described in the methods section of the above-referenced paper, except that the unlabeled bound knottin was detected by adding fluorescienated anti-human Fc mAb.
Wild type and P/W substituted forms of knottin 2.5 F were expressed as Fc fusion proteins in mammalian cells and their abilities to bind cellular αVβ3 and to express the LIBS mAb AP5 were compared. αVβ3-K562 (1×10^6) cells were suspended in 100 μl of culture supernatant containing equivalent amounts (based on ELISA) of WT knottin 2.5 F-Fc fusion protein, knottin 2.5 F (P/W)-Fc, WT knottin 2.5 D-Fc, or knottin 2.5 F (A/W)-Fc or medium alone and incubated for 30 min; 25° C., washed in 400 μl buffer and fluoresceinated anti-FC-specific antibody added for an additional 30 min at 4° C. Cells were washed, resuspended, fixed in 4% paraformaldehyde, and analyzed using FACSCalibur or BD-LSRII flow cytometers (BD Biosciences). Binding of soluble knottin dimers to αVβ3-K562 cells was expressed as mean fluorescence intensity (MFI), as determined using FlowJo software. […]

The target of assay [3] is T1, αVβ3. Description: AP5 epitope expression on K562-αVβ3 cells preincubated with knottin-Fc. The assay is classed as cell-based. The conditions noted are these: Ca2+ and Mg2+ 1 mM each. The procedure: Cells were washed, resuspended, fixed in 4% paraformaldehyde, and analyzed using FACSCalibur or BD-LSRII flow cytometers (BD Biosciences). Binding of soluble knottin dimers to αVβ3-K562 cells was expressed as mean fluorescence intensity (MFI), as determined using FlowJo software. […] Alexa647-labeled mAb AP5 Fab (10 μg/ml) was added, and cells incubated for an additional 30 min before washing. APC-labeled goat anti-mouse Fc-specific antibody was added to anti-LIBS-1- or anti-LIBS-6-bound M21 cells for an additional 30 min at 4° C. Cells were then washed, resuspended, fixed in 4% paraformaldehyde and analyzed by flow cytometry. AP5 epitope expression was measured and expressed as MFI.
Cells were washed, resuspended, fixed in 4% paraformaldehyde, and analyzed using FACSCalibur or BD-LSRII flow cytometers (BD Biosciences). Binding of soluble knottin dimers to αVβ3-K562 cells was expressed as mean fluorescence intensity (MFI), as determined using FlowJo software. […] APC-labeled goat anti-mouse Fe-specific antibody was added to anti-LIBS-1- or anti-LIBS-6-bound M21 cells for an additional 30 min at 4° C. Cells were then washed, resuspended, fixed in 4% paraformaldehyde and analyzed by flow cytometry. AP5 epitope expression was measured and expressed as MFI.

Another assay relates to K562-αVβ3 cells. Description: Mn2+-induced spreading of K562-αVβ3 cells on immobilized FN forms. The assay is classed as cell-based, human. Particulars: 1 mM Mn2+. The procedure:
The various FN-coated surfaces were washed with PBS, and blocked with bovine serum albumin (5% w/v in PBS; lh; 25° C.). K562-αVβ3 cells (5×10^4) were added (in TBS; 1 mM Mn^2+), in the absence or presence of LM609 mAb (10 μg/ml, added 15 min prior to plating). Cells were incubated (2 h; 37° C.), washed three times in warm TBS and fixed with 4% formaldehyde (in PBS; 25° C.; 10 min). Images were captured using an inverted phase microscope (Zeiss Axiovert 40CFL) fitted with a powershot G12 Cannon Camera. ImageJ 1.48a software (National Institutes of Health, USA) was used to quantify cell spreading of 300-400 random selected cells. Spread cells were clearly distinguishable from round, refringent non-spread cells. Representative phase contrast images were collected using Zeiss Axiovert 35 inverted microscope using a CCD camera and Spot software (Diagnostics Instruments). Adhesion of transiently transfected HEK293 expressing equivalent amounts of αVβ3(N339/S) or αV(N266/Q)β3(N339/S) was done by adding cells (3×10^4) in TBS containing Ca^2+/Mg^2+ and 0.1% BSA (w/v) to FN-coated surfaces (45 min; 25° C.). Non-adherent cells were removed by washing and adherent cells fixed (2% paraformaldehyde; 30 min; 25° C.), stained (0.1% Crystal Violet; 30 min; 25° C.), washed with water, air dried and then solubilized (1% SDS). Relative cell attachment was estimated by absorbance of the lysates at 540 nm measured using a SpectraMax M2E microplate reader (Molecular Devices, Sunnyvale, Calif.).

Another assay addresses T2, αVβ3(N339/S) (Homo sapiens, UniProt P05106+P06756, N365S).
T2 construct: pcDNA3 plasmids encoding full-length WT αVβ3, αVβ3(Y122/A), αVβ3(N339/S); expressed in transfected cells; host or cells: HEK293T (transient)
The experiment in a line: Binding of fluoresceinated FN10 to WT αVβ3 or αVβ3(N339/S) expressed on HEK293T cells. The procedure:
The human erythroleukemia cell line K562 stably expressing recombinant αVβ3 (K562-αVβ3) and the human melanoma cell line M21, which constitutively expresses αVβ3, have been previously described (Xiong, J. P. et al. The Journal of Cell Biology 186, 589-600 (2009); and Mitjans, F. et al. J Cell Sci 108 (Pt 8), 2825-2838 (1995)). Cells were maintained in Iscove's modified Dulbecco's medium (K562-αVβ3) or RPMI1640 (M21), supplemented with 10% fetal calf serum, 2 mM L-glutamine, penicillin and streptomycin, plus G418 (0.5-1.0 mg/ml) in cultured K562-αVβ3. HEK293T (ATCC) were transiently co-transfected with pcDNA3 plasmids encoding full-length WT αVβ3, αVβ3(Y122/A), αVβ3(N339/S), or αV(N266/Q)β3(N339/S) using Lipofectamine 2000 reagent (Invitrogen) according to the manufacturer's protocol.
In cellular and biochemical assays where calcium, magnesium or manganese ions were used, they were each at final concentrations of 1 mM. […] Binding of soluble FN10 to αVβ3^+ cells was expressed as mean fluorescence intensity (MR), as determined using the CellQuest software (BD). […] Mean and SD from independent experiments were calculated, and compared using Student's t test.

Another assay addresses T3, αVβ3 ectodomain (Homo sapiens, UniProt P05106+P06756).
T3 construct: αVβ3 ectodomain was incubated alone or with FN10; made in house; host or cells: insect cells
Description: Hydrodynamic shift assay (molecular sieve chromatography, Stokes radius). Particulars: in Mn2+ (6.3 nm without ligand). The procedure: αVβ3 ectodomain was incubated alone or with FN10 (at 2:1 FN10/integrin molar ratio) in 145 mM NaCl and 25 mM Tris-HCl, pH 7.4 (TBS) containing Ca^2+, Ca^2+/Mg^2+ or Mn^2+ (20° C.; 1.5 h). Aliquots were taken and chromatographed at room temperature at this time point on a precalibrated Superdex S-200 GL column equilibrated buffer with the same metal ion composition used during the incubation, and Stokes radii were derived as described previously (Xiong, J. P. et al. The Journal of Cell Biology 186, 589-600 (2009)). The elution profiles resolved by molecular sieve chromatography were monitored in-line by UV adsorption at 280 nm. Unliganded ±FN10-treated αVβ3 species were resolved as single discrete symmetrical peaks. Excess FN10 served as an internal standard. Identity of resolved peaks was formally confirmed by SDS-PAGE.

Another assay deals with α5β1 (Homo sapiens, UniProt P05556+P08648). Particulars: Moore et al, 2013; cited from earlier work.
A further assay has as its target αVβ5 (Homo sapiens, UniProt P06756+P18084). The conditions noted are these: Moore et al, 2013; cited from earlier work.
Assay [4] addresses T1, αVβ3. The experiment in a line: Binding of fluoresceinated fluid-phase FN10 to K562-αVβ3 cells (flow cytometry). The conditions noted are these: 1 mM Ca2+/Mg2+; fold over background. On the procedure:
In cellular and biochemical assays where calcium, magnesium or manganese ions were used, they were each at final concentrations of 1 mM. Cells stably (K562) or transiently (I-fEK293T) expressing WT or mutant forms of αVβ3 were preincubated (30 min; 0° C.) in the dark with Alexa647-conjugated AP3 (10 μg/ml), washed in Hepes-buffered saline (20 mM Hepes, 150 mM NaCl, pH 7.4) containing BSA (0.1% w/v; washing buffer, WB), incubated in 10 mM EDTA in WB (5 min; 25° C.), then washed three times in WB. […] Binding of soluble FN10 to αVβ3^+ cells was expressed as mean fluorescence intensity (MR), as determined using the CellQuest software (BD). Binding of soluble FN10 to HEK293T was normalized by dividing its MFI by the MFI of Alexa647-conjugated AP3 to the same cells and multiplying by 100. Mean and SD from independent experiments were calculated, and compared using Student's t test.
A general note: Flow cytometry measures light scatter and fluorescence of single cells or particles in a stream.

The target of a further assay is αVβ3^N/S (Homo sapiens, UniProt P05106+P06756, N365S). Description: Binding of fluorescein-tagged hFN10-G to preactivated cellular αVβ3(N/S). Details: pcDNA3 plasmids encoding full-length WT αVβ3, αVβ3(Y122/A), αVβ3(N339/S); expressed in transfected cells; host or cells: HEK293T (transient). The conditions noted are these: N339 to S activation. The text has this: (§1) FIG. 9. […] (A) Superposed RGD-containing loops of hFN10 (gray in original), hFN10-G (pink in original) onto the RGD loop of frog γC (green in original). Sphere represents the metal ion at MIDAS.

In another assay the target is T4, αIIbβ3^N/S (Homo sapiens, UniProt P05106+P08514, N365S).
T4 construct: expressed in transfected cells
Description: Binding of fluorescein-tagged hFN10-G to preactivated cellular αIIbβ3(N/S). The conditions noted are these: N339 to S activation.
Description: as §1

No end group written: not given here.

T1 sequence (P06756 31-889 limits assumed): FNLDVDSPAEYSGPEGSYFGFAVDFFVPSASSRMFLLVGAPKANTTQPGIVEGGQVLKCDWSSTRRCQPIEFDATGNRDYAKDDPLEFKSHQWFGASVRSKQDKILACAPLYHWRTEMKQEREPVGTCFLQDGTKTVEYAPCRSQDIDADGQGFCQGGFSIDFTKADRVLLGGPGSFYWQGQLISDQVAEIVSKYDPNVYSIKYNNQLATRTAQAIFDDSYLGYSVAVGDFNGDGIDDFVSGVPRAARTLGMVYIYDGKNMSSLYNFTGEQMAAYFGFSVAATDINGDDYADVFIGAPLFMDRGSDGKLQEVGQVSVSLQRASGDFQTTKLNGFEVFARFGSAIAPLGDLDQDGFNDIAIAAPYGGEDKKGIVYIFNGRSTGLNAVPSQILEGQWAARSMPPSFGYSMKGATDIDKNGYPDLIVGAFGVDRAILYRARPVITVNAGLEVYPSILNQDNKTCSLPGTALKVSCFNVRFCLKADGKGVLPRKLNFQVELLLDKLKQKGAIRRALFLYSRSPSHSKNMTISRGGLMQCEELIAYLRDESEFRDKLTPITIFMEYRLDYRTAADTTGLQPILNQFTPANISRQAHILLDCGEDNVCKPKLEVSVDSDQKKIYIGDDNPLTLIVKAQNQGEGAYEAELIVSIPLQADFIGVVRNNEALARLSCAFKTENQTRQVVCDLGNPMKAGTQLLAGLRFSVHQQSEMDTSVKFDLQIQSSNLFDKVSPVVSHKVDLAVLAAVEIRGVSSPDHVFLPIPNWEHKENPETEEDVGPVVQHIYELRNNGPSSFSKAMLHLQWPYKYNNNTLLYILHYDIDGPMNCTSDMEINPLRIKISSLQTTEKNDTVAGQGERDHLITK
T1 sequence (P06756 891-1048 partner limits assumed): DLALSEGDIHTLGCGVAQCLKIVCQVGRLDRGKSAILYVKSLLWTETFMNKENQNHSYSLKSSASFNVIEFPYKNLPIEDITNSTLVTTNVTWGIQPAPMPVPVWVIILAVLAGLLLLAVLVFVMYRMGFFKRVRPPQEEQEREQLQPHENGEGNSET
T1 sequence (P05106 27-788): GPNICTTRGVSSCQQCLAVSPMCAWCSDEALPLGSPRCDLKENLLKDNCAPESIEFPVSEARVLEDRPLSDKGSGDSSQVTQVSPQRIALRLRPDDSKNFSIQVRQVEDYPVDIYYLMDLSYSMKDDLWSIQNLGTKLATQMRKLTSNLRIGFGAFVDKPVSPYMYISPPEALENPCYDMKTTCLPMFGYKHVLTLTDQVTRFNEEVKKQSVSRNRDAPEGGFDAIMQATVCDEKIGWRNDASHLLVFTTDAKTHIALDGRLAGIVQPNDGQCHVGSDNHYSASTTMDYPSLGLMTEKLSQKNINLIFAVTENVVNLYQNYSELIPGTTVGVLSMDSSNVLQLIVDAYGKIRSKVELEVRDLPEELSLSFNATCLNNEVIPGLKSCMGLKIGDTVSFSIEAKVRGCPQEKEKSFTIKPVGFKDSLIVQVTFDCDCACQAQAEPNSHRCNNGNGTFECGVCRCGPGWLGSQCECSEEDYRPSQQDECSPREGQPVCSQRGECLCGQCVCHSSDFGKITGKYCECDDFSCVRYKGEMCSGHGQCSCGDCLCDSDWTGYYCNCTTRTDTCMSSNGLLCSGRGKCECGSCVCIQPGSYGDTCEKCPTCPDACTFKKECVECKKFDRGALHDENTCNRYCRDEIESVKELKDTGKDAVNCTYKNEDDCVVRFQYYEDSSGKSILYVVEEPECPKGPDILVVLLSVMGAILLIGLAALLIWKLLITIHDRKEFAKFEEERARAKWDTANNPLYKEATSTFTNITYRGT
T3 sequence (P06756 31-987): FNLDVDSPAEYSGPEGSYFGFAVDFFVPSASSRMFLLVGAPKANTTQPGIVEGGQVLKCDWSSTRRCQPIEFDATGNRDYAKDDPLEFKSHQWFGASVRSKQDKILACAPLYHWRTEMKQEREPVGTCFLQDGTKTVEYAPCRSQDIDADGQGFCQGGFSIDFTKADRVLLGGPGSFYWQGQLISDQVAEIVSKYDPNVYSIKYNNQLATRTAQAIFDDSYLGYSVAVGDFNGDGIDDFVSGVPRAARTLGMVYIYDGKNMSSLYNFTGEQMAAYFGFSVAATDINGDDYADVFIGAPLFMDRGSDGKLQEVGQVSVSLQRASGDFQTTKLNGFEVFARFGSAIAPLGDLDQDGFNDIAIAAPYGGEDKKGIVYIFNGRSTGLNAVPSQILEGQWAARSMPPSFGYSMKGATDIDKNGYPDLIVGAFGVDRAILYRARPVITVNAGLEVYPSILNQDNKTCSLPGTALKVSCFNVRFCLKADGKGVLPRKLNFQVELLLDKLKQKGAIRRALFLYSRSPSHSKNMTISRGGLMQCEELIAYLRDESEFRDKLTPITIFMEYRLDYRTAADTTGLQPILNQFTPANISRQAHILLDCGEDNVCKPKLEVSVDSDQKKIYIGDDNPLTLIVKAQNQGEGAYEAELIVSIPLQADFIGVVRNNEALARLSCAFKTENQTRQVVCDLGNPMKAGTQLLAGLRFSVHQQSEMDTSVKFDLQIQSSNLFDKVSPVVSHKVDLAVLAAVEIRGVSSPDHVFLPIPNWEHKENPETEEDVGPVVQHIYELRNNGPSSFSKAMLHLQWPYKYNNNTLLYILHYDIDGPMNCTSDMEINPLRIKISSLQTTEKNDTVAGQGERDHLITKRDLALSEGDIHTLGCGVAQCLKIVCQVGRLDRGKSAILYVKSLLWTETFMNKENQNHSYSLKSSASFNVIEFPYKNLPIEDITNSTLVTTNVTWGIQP
T3 sequence (P05106 27-718): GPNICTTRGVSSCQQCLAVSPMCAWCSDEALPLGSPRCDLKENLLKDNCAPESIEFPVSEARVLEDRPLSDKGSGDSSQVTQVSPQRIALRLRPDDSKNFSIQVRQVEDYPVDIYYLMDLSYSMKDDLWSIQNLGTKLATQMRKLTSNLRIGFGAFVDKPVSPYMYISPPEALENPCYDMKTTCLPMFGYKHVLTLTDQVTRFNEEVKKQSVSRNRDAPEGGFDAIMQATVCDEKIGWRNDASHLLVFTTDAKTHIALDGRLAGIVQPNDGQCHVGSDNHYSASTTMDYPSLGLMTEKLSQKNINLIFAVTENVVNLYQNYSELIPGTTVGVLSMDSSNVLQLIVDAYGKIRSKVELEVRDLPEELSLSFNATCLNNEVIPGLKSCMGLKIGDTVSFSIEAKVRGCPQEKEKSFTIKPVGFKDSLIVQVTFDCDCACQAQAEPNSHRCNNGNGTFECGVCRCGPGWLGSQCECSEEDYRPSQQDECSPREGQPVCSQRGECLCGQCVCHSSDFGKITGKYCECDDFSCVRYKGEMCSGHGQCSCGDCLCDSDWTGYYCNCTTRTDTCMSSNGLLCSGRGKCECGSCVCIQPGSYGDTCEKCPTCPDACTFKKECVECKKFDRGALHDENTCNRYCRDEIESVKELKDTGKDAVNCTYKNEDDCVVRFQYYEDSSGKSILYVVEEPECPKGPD
Chain of αVβ5 (P06756 31-889 limits assumed): as the sequence (P06756 31-889 limits assumed) above
Chain of αVβ5 (P06756 891-1048 partner limits assumed): as the sequence (P06756 891-1048 partner limits assumed) above
Chain of αVβ5 (P18084 24-799): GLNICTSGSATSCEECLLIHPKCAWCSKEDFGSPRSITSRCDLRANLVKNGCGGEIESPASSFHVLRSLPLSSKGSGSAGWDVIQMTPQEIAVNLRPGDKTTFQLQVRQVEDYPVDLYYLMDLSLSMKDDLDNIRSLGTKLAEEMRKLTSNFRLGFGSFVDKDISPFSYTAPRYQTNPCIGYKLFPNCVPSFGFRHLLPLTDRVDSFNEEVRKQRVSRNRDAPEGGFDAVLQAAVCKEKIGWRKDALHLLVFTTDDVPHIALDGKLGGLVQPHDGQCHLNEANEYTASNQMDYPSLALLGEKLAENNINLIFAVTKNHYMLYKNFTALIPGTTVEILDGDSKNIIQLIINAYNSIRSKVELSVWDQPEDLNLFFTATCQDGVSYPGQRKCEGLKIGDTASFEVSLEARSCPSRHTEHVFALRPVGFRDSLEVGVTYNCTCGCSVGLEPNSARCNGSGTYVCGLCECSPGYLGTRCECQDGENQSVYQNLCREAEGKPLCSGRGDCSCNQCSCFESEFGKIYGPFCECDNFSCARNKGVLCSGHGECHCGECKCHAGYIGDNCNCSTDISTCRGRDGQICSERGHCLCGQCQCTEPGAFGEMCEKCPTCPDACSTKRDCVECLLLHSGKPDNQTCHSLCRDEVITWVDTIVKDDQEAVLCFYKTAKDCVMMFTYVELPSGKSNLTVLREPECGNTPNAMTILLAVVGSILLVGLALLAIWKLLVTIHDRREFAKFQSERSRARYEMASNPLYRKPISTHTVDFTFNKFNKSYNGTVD
Chain of αVβ3^N/S (P06756 31-889 limits assumed): as the sequence (P06756 31-889 limits assumed) above
Chain of αVβ3^N/S (P06756 891-1048 partner limits assumed): as the sequence (P06756 891-1048 partner limits assumed) above
Chain of αVβ3^N/S (P05106 27-788 N365S): as the sequence (P05106 27-788) above, with N339S counted along it
T2 sequence (P06756 31-889 limits assumed): as the sequence (P06756 31-889 limits assumed) above
T2 sequence (P06756 891-1048 partner limits assumed): as the sequence (P06756 891-1048 partner limits assumed) above
T2 sequence (P05106 27-788 N365S): as the sequence (P05106 27-788) above, with N339S counted along it

As to `CC(C)[C@H]1C(=O)N[C@@H](CCCN=C(N)N)C(=O)NCC(=O)N[C@@H](CC(=O)O)C(=O)N[C@H](Cc2ccccc2)C(=O)N1C` [cilengitide], in [1], the “Effect on model tumor growth and angiogenesis” value was “paradoxically stimulated model tumor growth and angiogenesis”.
Take “P/W knottin 2.5 F: knottin 2.5 F with Proline 10 replaced by Trp, expressed as Fc fusion protein (GCPRPRGDNWPLTCSQDSDCLAGCVCGPNGFCG; disulfide (positions not given here); also: cystine-knot disulfide bonds, pairing not given here, Fc fusion protein)”: in the assay with αVβ3 [2], the “Binding to cellular αVβ3 (K562-αVβ3)” value is reported as “equivalent”. The “AP5 expression / integrin activation on K562-αVβ3” value with αVβ3 [3] was “suppressed AP5 expression”.
With “full-length FN: full-length human plasma fibronectin from Sigma-Aldrich”, the “Spreading of K562-αVβ3 cells on immobilized ligand” value (“Spreading of K562-αVβ3 cells” for short) in the assay on K562-αVβ3 cells is recorded as “extensive spreading”.
As to “hFN10: mutant high affinity form of the 10th type-III domain of fibronectin, loop PRGDWNEG, SEQ ID NO: 9”, the “Binding to WT αVβ3 versus active αVβ3(N339/S)” value in the assay with αVβ3(N339/S) is “similar”. Moreover, the “Stokes' radius (Rs) of αVβ3 complex” value in the assay with αVβ3 ectodomain is recorded as 6.3 nm. Also, in the assay with K562-αVβ3 cells, the “Spreading of K562-αVβ3 cells” value was “little spreading”.
As to “knottin 2.5 F: cysteine-knot peptide, chemically synthesized, published sequence (Kimura et al 2009) (GCPRPRGDNPPLTCSQDSDCLAGCVCGPNGFCG)”, the “Binding to integrin α5β1” value in the assay with α5β1 is “binds”. Besides, the “Binding to integrin αVβ5” value in the assay with αVβ5 is recorded as “binds”.
For “wtFN10: 10th type-III RGD-domain of wild-type human fibronectin, loop GRGDSPAS, SEQ ID NO: 20 [reference compound]”, the “Binding of fluoresceinated FN10 to K562-αVβ3” value in the assay with αVβ3 [4] is given as “low background”. In the assay with αVβ3 ectodomain, the “Stokes' radius (Rs) of αVβ3 complex” value turned out to be 6.6 nm. For the same molecule, the “Spreading of K562-αVβ3 cells” value in the assay on K562-αVβ3 cells is listed as “extensive spreading”.

B1: hFN10-G: hFN10 with a glycine inserted after proline 1492, SEQ ID NO: 29 (protein)
chain: SDVPRDLEVVAATPTSLLISWDAPAVTVRYYRITYGETGGNSPVQEFTVPGSKSTATISGLKPGVDYTITVYAVTPGRGDWNEGSKPISINY
On to B1, for which the “Binding to preactivated cellular αVβ3^N/S” value in the assay with αVβ3^N/S was “did not bind”. Also, the “Binding to preactivated cellular αIIbβ3^N/S” value with αIIbβ3^N/S is “some binding”.

The record behind these values is patent publication US10533044B2, “Integrin Antagonists” (The General Hospital Corporation, priority 2014, dated 2020).
